Self-cleavage data for 39 variants are collected here from the RNAGym collection of RNA variant scans (doi:10.7554/elife.80360).

The labels stand for the following.
B1: CPEB3 Ribozyme (parent)
chain: GGGGGCCACAGCAGAAGCGUUCACGUCGCGGCCCCUGUCAGAUUCUGGUGAAUCUGCGAAUUCUGCUGU

The data set covers variants of B1. Description: self-cleavage, relative activity (ratio to wild type); higher = more cleavage; co-transcriptional.
As to CGGGGCCACAGCAGAAGCGUUCACGUCGCGGCCCCUGUCAGAUUCUGGUGAAUCUGCGCAUUCUGCUGU [G1C A59C], the self-cleavage was found to be 0.27.

Consider CGGGGCCACAGCAGAAGCGUUCACGUCGCGGCCCCUGUCAGAUUCUGGUGAAUCUGCGUAUUCUGCUGU [G1C A59U], for which the self-cleavage came to 0.147.

In the case of CGGGGCCACAGCAGAAGCGUUCACGUCGCGGCCCCUGUCAGAUUCUGGUGAAUCUGCGGAUUCUGCUGU [G1C A59G], the self-cleavage amounted to 0.26.

In the case of CGGGGCCACAGCAGAAGCGUUCACGUCUCGGCCCCUGUCAGAUUCUGGUGAAUCUGCGAAUUCUGCUGU [G1C G28U], the self-cleavage was found to be 0.0985.

As for CGGGGCCACAGCAGAAGCGUUCACGUCCCGGCCCCUGUCAGAUUCUGGUGAAUCUGCGAAUUCUGCUGU [G1C G28C], the self-cleavage was 0.12.

Turning to CGGGGCCACAGCAGAAGCGUUCACGUCGCGGACCCUGUCAGAUUCUGGUGAAUCUGCGAAUUCUGCUGU [G1C C32A], the self-cleavage is 0.279.

Take CGGGGCCACAGCAGAAGCGUUCACGUCGCGGUCCCUGUCAGAUUCUGGUGAAUCUGCGAAUUCUGCUGU [G1C C32U]: the self-cleavage stood at 0.327.

As for CGGGGCCACAGCAGAAGCGUUCACGUCGCGACCCCUGUCAGAUUCUGGUGAAUCUGCGAAUUCUGCUGU [G1C G31A], the self-cleavage was 0.272.

For CGGGGCCACAGCAGAAGCGUUCACGUCGCGCCCCCUGUCAGAUUCUGGUGAAUCUGCGAAUUCUGCUGU [G1C G31C], the self-cleavage stood at 0.0643.

For the variant CGGGGCCACAGCAGAAGCGUUCACGUCGCGUCCCCUGUCAGAUUCUGGUGAAUCUGCGAAUUCUGCUGU [G1C G31U], the self-cleavage stood at 0.266.

As for CGGGGCCACAGCAGAAGCGUUCACGUCGCGGCCCCUUUCAGAUUCUGGUGAAUCUGCGAAUUCUGCUGU [G1C G37U], the self-cleavage turned out to be 0.101.

In the case of CGGGGCCACAGCAGAAGCGUUCACGUCGCGGCCCCUCUCAGAUUCUGGUGAAUCUGCGAAUUCUGCUGU [G1C G37C], the self-cleavage was found to be 0.125.

Turning to CGGGGCCACAGCAGAAGCGUUGACGUCGCGGCCCCUGUCAGAUUCUGGUGAAUCUGCGAAUUCUGCUGU [G1C C22G], the self-cleavage is 0.0703.

Turning to CGGGGCCACAGCAGAAGCGUUAACGUCGCGGCCCCUGUCAGAUUCUGGUGAAUCUGCGAAUUCUGCUGU [G1C C22A], the self-cleavage is 0.0757.

In the case of CGGGGCAACAGCAGAAGCGUUCACGUCGCGGCCCCUGUCAGAUUCUGGUGAAUCUGCGAAUUCUGCUGU [G1C C7A], the self-cleavage turned out to be 0.144.

On to CGGGGCGACAGCAGAAGCGUUCACGUCGCGGCCCCUGUCAGAUUCUGGUGAAUCUGCGAAUUCUGCUGU [G1C C7G], for which the self-cleavage was found to be 0.128.

With CGGGGCCACAGCAGAAGCGUUCACGUCGCGGCCCCUGUCAGAUUCUGGUGAUUCUGCGAAUUCUGCUGU [G1C A52U], the self-cleavage came out at 0.201.

Take CGGGGCCACAGCAGAAGCGUUCACGUCGGGGCCCCUGUCAGAUUCUGGUGAAUCUGCGAAUUCUGCUGU [G1C C29G]: the self-cleavage was found to be 0.106.

For the variant CGGGGCCACAGCAGAAGCGUUCACGUCGUGGCCCCUGUCAGAUUCUGGUGAAUCUGCGAAUUCUGCUGU [G1C C29U], the self-cleavage turned out to be 0.105.

For CGGGGCCACAGCAGAAUCGUUCACGUCGCGGCCCCUGUCAGAUUCUGGUGAAUCUGCGAAUUCUGCUGU [G1C G17U], the self-cleavage worked out at 0.155.

Turning to CGGGGCCACAGCAGAAACGUUCACGUCGCGGCCCCUGUCAGAUUCUGGUGAAUCUGCGAAUUCUGCUGU [G1C G17A], the self-cleavage was determined as 0.124.

As for CGGGGCCACAGCAGAACCGUUCACGUCGCGGCCCCUGUCAGAUUCUGGUGAAUCUGCGAAUUCUGCUGU [G1C G17C], the self-cleavage came out at 0.0857.

CGGGGCCACAGCAGAAGCGUUCACGUCGCGGCCCCUGUCAGAUUCUGGUGAAUGUGCGAAUUCUGCUGU [G1C C54G]: the self-cleavage was 0.321.

As to CGGGGCCACAGCAGAAGCGUUCACGUGGCGGCCCCUGUCAGAUUCUGGUGAAUCUGCGAAUUCUGCUGU [G1C C27G], the self-cleavage came to 0.124.

Regarding CGGGGCCACAGCAGAAGCGUUCACGUAGCGGCCCCUGUCAGAUUCUGGUGAAUCUGCGAAUUCUGCUGU [G1C C27A], the self-cleavage stood at 0.211.

Turning to CGGGGCCACAGCAGAAGCGUUCACGUUGCGGCCCCUGUCAGAUUCUGGUGAAUCUGCGAAUUCUGCUGU [G1C C27U], the self-cleavage was 0.131.

Turning to CGGGGCCACAGCAGAAGCGUUCAAGUCGCGGCCCCUGUCAGAUUCUGGUGAAUCUGCGAAUUCUGCUGU [G1C C24A], the self-cleavage was found to be 0.0947.

Turning to CGGGGCCACAGCAGAAGCGUUCACGUCGCGGCCCUUGUCAGAUUCUGGUGAAUCUGCGAAUUCUGCUGU [G1C C35U], the self-cleavage stood at 0.167.

On to CGGGGCCACAGCAGAAGCGUUCACGUCGCGGCCCGUGUCAGAUUCUGGUGAAUCUGCGAAUUCUGCUGU [G1C C35G], for which the self-cleavage was 0.161.

Turning to CGGGGCCACAGCAGAAGCGUUCACGUCGCGGCCCAUGUCAGAUUCUGGUGAAUCUGCGAAUUCUGCUGU [G1C C35A], the self-cleavage is 0.069.

As for CGGGGCCACAGCAGAAGCGUUCACGUCGCGGCCCCUGUCAAAUUCUGGUGAAUCUGCGAAUUCUGCUGU [G1C G41A], the self-cleavage came to 0.19.

With CGGGGCCACAGCAGAAGCGUUCACGUCGCGGCCCCUGUCACAUUCUGGUGAAUCUGCGAAUUCUGCUGU [G1C G41C], the self-cleavage was found to be 0.23.

Turning to CGGAGCCACAGCAGAAGCGUUCACGUCGCGGCCCCUGUCAGAUUCUGGUGAAUCUGCGAAUUCUGCUGU [G1C G4A], the self-cleavage turned out to be 0.225.

As for CGGCGCCACAGCAGAAGCGUUCACGUCGCGGCCCCUGUCAGAUUCUGGUGAAUCUGCGAAUUCUGCUGU [G1C G4C], the self-cleavage is 0.216.

With CGGGGCCACAGCAUAAGCGUUCACGUCGCGGCCCCUGUCAGAUUCUGGUGAAUCUGCGAAUUCUGCUGU [G1C G14U], the self-cleavage was 0.164.

As for CGGGGCCACAGCAAAAGCGUUCACGUCGCGGCCCCUGUCAGAUUCUGGUGAAUCUGCGAAUUCUGCUGU [G1C G14A], the self-cleavage was 0.152.

CAGGGCCACAGCAGAAGCGUUCACGUCGCGGCCCCUGUCAGAUUCUGGUGAAUCUGCGAAUUCUGCUGU [G1C G2A]: the self-cleavage was 0.408.

Take CGGGGCCACAGGAGAAGCGUUCACGUCGCGGCCCCUGUCAGAUUCUGGUGAAUCUGCGAAUUCUGCUGU [G1C C12G]: the self-cleavage came out at 0.238.

On to CGGGGCCACAGUAGAAGCGUUCACGUCGCGGCCCCUGUCAGAUUCUGGUGAAUCUGCGAAUUCUGCUGU [G1C C12U], for which the self-cleavage is 0.252.
